Experimental data: patent publication US11242370B2, “Neuregulin-4 compounds and methods of use” (Eli Lilly and Company, priority 2019, dated 2022)

Assays:
Assay type in all cases: cell-based
human HER2/HER4 = target: T1, human HER2/HER4 (Homo sapiens, UniProt Q15303); experiment: Human HER2/HER4 phospho-ERK 1/2 assay, purified proteins, CHO-K1 cells; settings: for % Maximal NRG1 activity: maximal signal relative to native human NRG1 per plate; for EC50: purified proteins, phospho-ERK1/2
T1 construct: expressed in transfected cells
Procedure: (§1) A cell based assay utilizing CHO-K1 cells overexpressing human or rat HER receptors is used to determine activity of NRG4 compounds. CHO-K1 cells (ATCC) are grown in DMEM-F12 3:1 with 5% FBS with 20 mM HEPES, 40 μg/mL L-Proline, lx antibiotics and were split 1:5 every 2-3 days with TripLE Express (Gibco). Cells are transfected with plasmid DNA encoding HER receptors in pairs (hHER2-3, hHER2-4, rHER2-3 and rHER2-4) with Fugene 6 (Promega) according to the manufacturer's instructions. […] Transfected cells are selected with Puromycin (12 ug/ml) and Hygromycin (1 mg/ml) for 3-4 weeks and clonal lines are obtained by limited dilution cloning into 96 well plates. Clonal lines are selected by appropriate gene expression of HER2, HER3 or HER4 by Taqman method. Lines with appropriate receptor expression are confirmed by NRG1 induced phospho-ERK 1/2 responses. Clones are grown up, harvested, aliquoted into cryovials and then frozen under liquid nitrogen for long-term storage.
(§2) A phospho-ERK1/2 activity assay is utilized with CHO-K1 cells overexpressing human or rat HER receptors to determine potencies and selectivity of purified NRG4 compounds. CHO-K1 cell lines expressing the human or rat HER receptors are cultured with selection medium (DMEM-F12 3:1 with 5% FBS with 20 mM HEPES, 40 μg/mL L-Proline, 1× antibiotics, 12 μg/mL puromycin, 1 mg/mL Hygromycin B). On Day −1 (the day before phospho-ERK1/2 assay), cells are washed once with PBS, detached with enzyme free cell dissociation solution (GIBCO cat #13151-014), and resuspended in plating medium (DMEM-F12 3:1 with 20 mM HEPES, lx antibiotics, 0.2% FBS). Cells are plated in a 96-well Poly-D-Lysine coated plate (BD cat #354640) at 10,000 cells per 0.1 mL per well. Cells are cultured in a tissue culture incubator at 37° C. 5% CO2 overnight. On Day 1 (the day of pERK1/2 assay), plates are incubated at room temperature for 30 min. The culture media are removed followed by addition of 504, ligand at various concentrations diluted in PBS-20 mM HEPES-0.005% BSA. Native human NRG1 and NRG4 peptides are purchased from Reprokine (Tampa, Fla.). The stimulation time is 30 min (except for hHER2-4 1H6 line in which 15 min is used for stimulation). At the end of stimulation, ligands are removed and 704, Lysis buffer (made according to manufacturer's recipe, Perkin Elmer cat #ALSU-PERK-A10K) is added. Plates are incubated at room temperature for 10 min on plate shaker with 350 rpm agitation, then on ice for 1 hour without shaking. 304, of cell lysis is transferred to a 96-well white Optiplate (Perkin Elmer cat #6002290) for phospho-ERK1/2 assay. Briefly 7.5 μL acceptor beads are added to 30 μL lysis in Optiplate. The plate is covered with aluminum foil and incubated at room temperature for 1 hour on plate shaker with 350 rpm agitation. Then 7.5 μL donor beads are added and the plate is covered with aluminum foil and incubated at room temperature for 2 hours on plate shaker with 350 rpm agitation or at 4° C. for overnight (warm up plate at room temperature for 2 h before reading). Alpha signal data are obtained on an Envision instrument (Alpha Technology-compatible plate reader). Donor beads and acceptor beads are made according to assay protocol. The data shown are generated with either the AlphaScreen SureFire p-ERK1/2 (Thr202/Tyr204) assay kit (Cat #TGRES50k) or the AlphaLISA® SureFire® Ultra™ p-ERK 1/2 (Thr202/Tyr204) assay kit (Perkin Elmer cat #ALSU-PERK-A10K). The activity of the NRG1 peptide was similar in both types of assays. Raw data obtained from the Envision instrument is imported into GraphPad Prism software (version 7). The EC50 value is generated by a variable slope-four parameter dose response curve. The % of maximal NRG1 activity data are generated by expressing the average maximal raw data for the NRG4 compound over the average maximal raw data for the native human NRG1 per plate and multiplying by 100. Data are provided below in Tables 7-9. N values reflect number of independent assays run. […]

rat HER2/HER4 = target: T2, rat HER2/HER4 (Rattus norvegicus, UniProt Q62956); experiment: Rat HER2/HER4 phospho-ERK 1/2 assay, purified proteins, CHO-K1 cells; settings: for % Maximal NRG1 activity: maximal signal relative to native human NRG1 per plate; for EC50: purified proteins, phospho-ERK1/2
T2 construct: expressed in transfected cells
Procedure: as §1, §2

rat HER2/HER3 = target: T3, rat HER2/HER3 (Rattus norvegicus, UniProt Q62799); experiment: Rat HER2/HER3 phospho-ERK 1/2 assay, purified proteins, CHO-K1 cells; settings: phospho-ERK1/2
T3 construct: expressed in transfected cells
Procedure: as §1
A phospho-ERK1/2 activity assay is utilized with CHO-K1 cells overexpressing human or rat HER receptors to determine potencies and selectivity of purified NRG4 compounds. CHO-K1 cell lines expressing the human or rat HER receptors are cultured with selection medium (DMEM-F12 3:1 with 5% FBS with 20 mM HEPES, 40 μg/mL L-Proline, 1× antibiotics, 12 μg/mL puromycin, 1 mg/mL Hygromycin B). On Day −1 (the day before phospho-ERK1/2 assay), cells are washed once with PBS, detached with enzyme free cell dissociation solution (GIBCO cat #13151-014), and resuspended in plating medium (DMEM-F12 3:1 with 20 mM HEPES, lx antibiotics, 0.2% FBS). Cells are plated in a 96-well Poly-D-Lysine coated plate (BD cat #354640) at 10,000 cells per 0.1 mL per well. […] Then 7.5 μL donor beads are added and the plate is covered with aluminum foil and incubated at room temperature for 2 hours on plate shaker with 350 rpm agitation or at 4° C. for overnight (warm up plate at room temperature for 2 h before reading). Alpha signal data are obtained on an Envision instrument (Alpha Technology-compatible plate reader). […]

T2 sequence (Q62956 26-1308): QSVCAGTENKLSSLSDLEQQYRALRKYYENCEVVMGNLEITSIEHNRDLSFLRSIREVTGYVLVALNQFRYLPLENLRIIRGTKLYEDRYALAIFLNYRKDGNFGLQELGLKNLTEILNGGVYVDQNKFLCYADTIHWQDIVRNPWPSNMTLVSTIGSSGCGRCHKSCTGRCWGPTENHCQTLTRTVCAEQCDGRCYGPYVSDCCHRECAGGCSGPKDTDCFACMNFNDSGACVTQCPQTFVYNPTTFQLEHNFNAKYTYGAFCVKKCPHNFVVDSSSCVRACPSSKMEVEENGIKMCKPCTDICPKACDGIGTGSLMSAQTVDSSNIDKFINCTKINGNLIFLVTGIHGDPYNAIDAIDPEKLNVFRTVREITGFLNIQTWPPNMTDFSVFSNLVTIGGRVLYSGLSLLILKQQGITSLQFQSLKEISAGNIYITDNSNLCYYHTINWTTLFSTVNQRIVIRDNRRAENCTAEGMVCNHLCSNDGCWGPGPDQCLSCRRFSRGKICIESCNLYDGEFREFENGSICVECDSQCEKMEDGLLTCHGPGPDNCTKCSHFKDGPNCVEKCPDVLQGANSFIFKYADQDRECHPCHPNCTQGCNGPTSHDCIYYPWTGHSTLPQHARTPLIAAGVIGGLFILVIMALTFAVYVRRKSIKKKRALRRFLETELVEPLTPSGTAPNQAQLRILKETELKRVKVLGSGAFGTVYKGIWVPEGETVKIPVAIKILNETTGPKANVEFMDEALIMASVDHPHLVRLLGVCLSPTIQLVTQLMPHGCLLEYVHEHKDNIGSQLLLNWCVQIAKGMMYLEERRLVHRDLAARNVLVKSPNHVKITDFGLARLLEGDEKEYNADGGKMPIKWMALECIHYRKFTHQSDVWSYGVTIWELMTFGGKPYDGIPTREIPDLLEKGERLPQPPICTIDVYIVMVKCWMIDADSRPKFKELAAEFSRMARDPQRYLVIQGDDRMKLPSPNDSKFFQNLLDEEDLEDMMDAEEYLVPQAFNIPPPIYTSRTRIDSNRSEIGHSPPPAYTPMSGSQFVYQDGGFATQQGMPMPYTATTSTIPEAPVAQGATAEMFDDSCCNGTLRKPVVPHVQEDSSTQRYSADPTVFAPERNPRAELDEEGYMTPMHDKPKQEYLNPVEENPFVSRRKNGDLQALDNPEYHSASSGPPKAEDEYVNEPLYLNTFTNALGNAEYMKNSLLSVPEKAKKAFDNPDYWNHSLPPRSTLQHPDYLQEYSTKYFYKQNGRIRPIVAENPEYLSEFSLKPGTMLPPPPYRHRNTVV
T2 sequence (P06494 23-1257 partner): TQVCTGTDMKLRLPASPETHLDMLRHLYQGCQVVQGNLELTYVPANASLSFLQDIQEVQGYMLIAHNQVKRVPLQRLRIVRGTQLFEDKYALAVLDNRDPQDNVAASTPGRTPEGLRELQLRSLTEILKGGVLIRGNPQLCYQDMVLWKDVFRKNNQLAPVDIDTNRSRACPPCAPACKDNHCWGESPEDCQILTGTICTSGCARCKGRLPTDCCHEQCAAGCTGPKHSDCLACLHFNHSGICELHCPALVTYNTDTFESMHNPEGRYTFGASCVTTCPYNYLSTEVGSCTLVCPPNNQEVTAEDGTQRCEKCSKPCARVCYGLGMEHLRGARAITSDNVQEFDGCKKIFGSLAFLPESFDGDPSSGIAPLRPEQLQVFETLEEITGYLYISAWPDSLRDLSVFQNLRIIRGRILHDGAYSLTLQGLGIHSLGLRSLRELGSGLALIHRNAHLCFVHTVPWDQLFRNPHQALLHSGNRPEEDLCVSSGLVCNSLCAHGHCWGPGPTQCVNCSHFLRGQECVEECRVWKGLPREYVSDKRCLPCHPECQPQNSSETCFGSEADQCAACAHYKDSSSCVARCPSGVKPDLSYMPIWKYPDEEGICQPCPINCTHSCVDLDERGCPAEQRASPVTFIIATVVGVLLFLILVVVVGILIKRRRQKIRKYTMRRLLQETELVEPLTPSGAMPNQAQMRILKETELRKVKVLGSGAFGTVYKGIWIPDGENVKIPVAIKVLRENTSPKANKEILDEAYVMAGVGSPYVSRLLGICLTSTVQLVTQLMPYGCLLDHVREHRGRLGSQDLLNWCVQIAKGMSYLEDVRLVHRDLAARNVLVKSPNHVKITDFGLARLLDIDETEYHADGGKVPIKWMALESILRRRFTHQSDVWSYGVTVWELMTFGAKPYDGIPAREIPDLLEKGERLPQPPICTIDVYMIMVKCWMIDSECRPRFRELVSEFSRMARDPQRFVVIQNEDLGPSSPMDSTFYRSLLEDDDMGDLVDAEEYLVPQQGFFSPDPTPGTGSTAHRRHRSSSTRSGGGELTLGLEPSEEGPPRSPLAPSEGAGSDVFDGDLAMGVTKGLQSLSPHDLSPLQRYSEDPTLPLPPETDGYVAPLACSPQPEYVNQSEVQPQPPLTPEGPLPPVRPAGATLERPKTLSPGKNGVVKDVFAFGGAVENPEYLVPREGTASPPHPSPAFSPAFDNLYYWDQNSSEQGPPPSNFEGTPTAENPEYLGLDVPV
T3 sequence (Q62799 20-1339): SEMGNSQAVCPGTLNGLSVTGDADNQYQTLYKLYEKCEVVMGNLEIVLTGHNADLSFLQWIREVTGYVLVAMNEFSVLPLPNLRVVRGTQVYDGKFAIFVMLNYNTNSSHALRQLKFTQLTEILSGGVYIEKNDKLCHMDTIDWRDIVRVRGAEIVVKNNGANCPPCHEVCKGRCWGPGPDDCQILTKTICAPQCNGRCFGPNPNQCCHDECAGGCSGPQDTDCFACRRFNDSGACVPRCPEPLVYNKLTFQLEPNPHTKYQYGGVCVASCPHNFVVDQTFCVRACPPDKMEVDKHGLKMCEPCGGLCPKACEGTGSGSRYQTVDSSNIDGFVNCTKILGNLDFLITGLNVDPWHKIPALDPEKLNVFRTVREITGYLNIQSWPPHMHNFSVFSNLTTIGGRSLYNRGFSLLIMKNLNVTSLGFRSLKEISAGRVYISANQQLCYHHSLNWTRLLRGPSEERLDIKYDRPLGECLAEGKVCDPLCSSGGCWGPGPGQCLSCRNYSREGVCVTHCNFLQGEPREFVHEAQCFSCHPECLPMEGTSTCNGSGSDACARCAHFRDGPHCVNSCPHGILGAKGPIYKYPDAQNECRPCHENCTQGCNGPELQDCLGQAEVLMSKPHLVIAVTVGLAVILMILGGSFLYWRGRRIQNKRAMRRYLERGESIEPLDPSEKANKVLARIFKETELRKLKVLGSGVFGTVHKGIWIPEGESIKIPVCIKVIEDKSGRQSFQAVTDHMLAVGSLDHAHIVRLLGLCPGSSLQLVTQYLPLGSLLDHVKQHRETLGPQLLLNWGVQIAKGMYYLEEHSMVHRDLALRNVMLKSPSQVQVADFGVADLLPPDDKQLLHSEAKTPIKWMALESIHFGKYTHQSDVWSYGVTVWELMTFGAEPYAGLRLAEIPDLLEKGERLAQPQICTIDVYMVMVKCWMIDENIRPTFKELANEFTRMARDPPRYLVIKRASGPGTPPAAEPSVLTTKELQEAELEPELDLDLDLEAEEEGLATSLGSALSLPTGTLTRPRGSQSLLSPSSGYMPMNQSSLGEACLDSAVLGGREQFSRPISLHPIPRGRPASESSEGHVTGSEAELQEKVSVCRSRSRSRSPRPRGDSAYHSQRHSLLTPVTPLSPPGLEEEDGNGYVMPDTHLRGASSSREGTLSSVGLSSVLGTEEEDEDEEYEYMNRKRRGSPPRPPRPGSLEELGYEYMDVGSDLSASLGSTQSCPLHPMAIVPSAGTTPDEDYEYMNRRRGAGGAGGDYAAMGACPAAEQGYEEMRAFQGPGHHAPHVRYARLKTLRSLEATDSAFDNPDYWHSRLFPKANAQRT
T3 sequence (P06494 23-1257 partner): as the sequence (P06494 23-1257 partner) above

Row | % Maximal NRG1 activity (human HER2/HER4) | EC50 (human HER2/HER4) [nM] | Molecule | % Maximal NRG1 activity (rat HER2/HER4) | EC50 (rat HER2/HER4) [nM] | EC50 (rat HER2/HER3) [nM]
1 | 100% | 0.67 ± 0.07 | WT NRG1: wild type human NRG1; native peptide purchased from Reprokine in Tables 7-9; comparator in the screening assays of Tables 4 and 6 | 100% | 0.29 ± 0.05 | 32 ± 14
2 | 75 ± 4 (N = 8) % | 90.1 ± 33.2 | WT NRG4: wild type human NRG4 (SEQ ID NO:1); parental hFcNRG4 in screening (Tables 4-6), native peptide from Reprokine in Tables 7-9 (DHEEPCGPSHKSFCLNGGLCYVIPTIPSPFCRCVENYTGARCEEVFL; listed as Homo sapiens) |  |  | 

Row | Molecule | % Maximal NRG1 activity (human HER2/HER4) | EC50 (human HER2/HER4) [nM] | % Maximal NRG1 activity (rat HER2/HER4) | EC50 (rat HER2/HER4) [nM] | EC50 (rat HER2/HER3) [nM]
3 | Example 10: NRG4 D1G/V22Q/E44K, (GGGGS)3 linker, SEQ ID NO: 19, fused to IgG Fc dimer SEQ ID NO: 6 and 7 (protein) chain 1: GGGGSGGGGSGGGGSGHEEPCGPSHKSFCLNGGLCYQIPTIPSPFCRCVENYTGARCEKVFL chain 2: ECPPCPAPPVAGPSVFLFPPKPKDTLMISRTPEVTCVVVDVSHEDPEVQFNWYVDGVEVHNAKTKPREEQFNSTFRVVSVLTVVHQDWLNGKEYKCKVSNKGLPAPIEKTISKTKGQPREPQVYTLPPSREEMTKNQVSLWCLVKGFYPSDIAVEWESNGQPENNYKTTPPVLDSDGSFFLYSKLTVDKSRWQQGNVFSCSVMHEALHNHYTQKSLSLSPG chain 3: ECPPCPAPPVAGPSVFLFPPKPKDTLMISRTPEVTCVVVDVSHEDPEVQFNWYVDGVEVHNAKTKPREEQFNSTFRVVSVLTVVHQDWLNGKEYKCKVSNKGLPAPIEKTISKTKGQPREPQVYTLPPSREEMTKNQVSLSCAVKGFYPSDIAVEWESNGQPENNYKTTPPVLDSDGSFFLVSKLTVDKSRWQQGNVFSCSVMHEALHNHYTQKSLSLSPG | 82 ± 4 (N = 8) % | 0.16 ± 0.02 | 88 ± 7 (N = 2) % | 0.12 ± 0.04 | > 100
